Measurements published in the nanobody polyreactivity screen of Harvey et al. (2022).

Experiment: yeast display, Sf9 membrane polyspecificity reagent, FACS + sequencing; frameworks hold sequencing errors
Outline: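 After 36–48 hours of galactose induction, yeast (Saccharomyces cerevisiae BJ5465) displaying a synthetic nanobody library were stained at 4 °C for 1 hour with 10% biotinylated, detergent-solubilized Sf9 membrane reagent. Streptavidin microbeads enriched the stained cells before FACS sorting into low and high (top ~1%) gates on anti-HA and streptavidin fluorescence. Each clone's polyreactivity label reflects its gate of origin.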

Sequence	polyreactivity (PSR sort gate)
QVQLVESGGGLVQAGGSLRLSCAASGSTFFTNAMAWYRQSPGKERELVASISFSGGRTYYADSVKGRFTISRDNAKNTVYLQMNSLKPEDTAVYYCAARRYRYTRYDYWGQGTQVTVSS	high polyreactivity
QVQLVESGGGLVQAGGSLRLSCAASGSTFFTNAMGWYRQAPGKERELVAAITINDGSTFYADSVKGRFTITRDNAKNTVYLQMNSLKPEDTAVYYCNADGVDLYDYWGQGTQVTVSS	low polyreactivity
QVQLVESGGGLVQAGGSLRLSCAASGSTFFTNVMGWYRQAPGKERELVAVIRWRGSDTYYADSVKGRFTISRDNAKNTVYLQMNSLKPEDTAVYYSNAKESFYPTTGEQGYSYDYWGQGTQVTVSS	low polyreactivity
QVQLVESGGGLVQAGGSLRLSCAASGSTFFTYTMGWYRQAPGKERELVARITSSGGSTYYADSVKGRFTISRDNAKNTVYLQMNSLKPEDTAVYYCNARYYSHPTYDYWGQGTQVTVSS	high polyreactivity
QVQLVESGGGLVQAGGSLRLSCAASGSTFFVANAMGWYRQSPGKERELVAAISPSGGSTYYADSVKGRFTISRDNAKNTVYLQMNSLKPEDTAVYYCATSVRRFTRRYDYWGQGTQVTVSS	high polyreactivity
QVQLVESGGGLVQAGGSLRLSCAASGSTFFWYAMGRYRQAPGKERELVAAISKTGGSTYYADSVKGRFTISRDNAKNTFYLQMNSLKPEDTAVYYCNAVPYASKAARSFDYWGQGTQVTVSS	low polyreactivity
QVQLVESGGGLVQAGGSLRLSCAASGSTFFWYGMGWYRQAPGKERELVAAISSDGSTYYADSVKGRFTISRDNAKNTVYLQMNSLKPEDTAVYYCAAQIPWYIYPGSYTMDYWGQGTQVTVSS	low polyreactivity
QVQLVESGGGLVQAGGSLRLSCAASGSTFFYNAMGWYRQAPGKERELVAAMSLSGGSITYYADSVKGRFTISRDNANNTVYLQMNSLKPEDTAVYYCAADSQATSYGLDYWGQGTQVTVSS	low polyreactivity
QVQLVESGGGLVQAGGSLRLSCAASGSTFFYNAMGWYRQAPGKERELVASINDRAGRTYYADSVKGRFTISRDNAKNTVYLQMNSLKPEDTAVYYCAAEPWYKFDYDYWGQGTQVTVSS	low polyreactivity
QVQLVESGGGLVQAGGSLRLSCAASGSTFFYYAMGWYRKAPGKERDFVAAISKSGGRTYYADTVKGRFTISRDNAKNTVYLQMNSLKPEDTAVYYCAAYYEYRRDYWGQCTQVTVSS	high polyreactivity
QVQLVESGGGLVQAGGSLRLSCAASGSTFFYYTMGWYRQAPGKERELVAAISRGGRTNYADSVKGRFTISRDNAKNTVYLLMNSLKREDTAVFYCIADAWSFRQYWGRYDYWGQGTQVTVSS	high polyreactivity
QVQLVESGGGLVQAGGSLRLSCAASGSTFGANALGWYRQAPGKERELVAAITGGSTFYADSVKGRFTISRDNAKNTVYLQMNSLKPEDTSVYYCAVDYTYSYVDYWSEYDYWGQGTQVTVSS	low polyreactivity
QVQLVESGGGLVQAGGSLRLSCAASGSTFGANAMGWYRQAPGKEREFVAAISRSGVRTYYADSVKGRFTISRDNAKNTVYLKLNSLKPEDTAVYYCAADGYWWTYTRYDYWGQGTQVTVSS	low polyreactivity
QVQLVESGGGLVQAGGSLRLSCAASGSTFGANAMGWYRQAPGKEREFVAAISRSGVRTYYADSVKGRFTISRDNAKNTVYLQMNSLKPEDTAVYYCAADGYWWTYKGQYDYWGQGTQVTVSS	low polyreactivity
QVQLVESGGGLVQAGGSLRLSCAASGSTFGANPMGWYRQAPGKEREFVAAISGSGTTTYYADSVKGRFTISRDNAKNTVYLQMNSLKTEDTAVYYCAKTRKAHWLEYWGQGTQVTVSS	low polyreactivity
QVQLVESGGGLVQAGGSLRLSCAASGSTFGDNAMGWYRQAPGKERELVAVITSDTSTYYADSVKGRFTISRDNAKNTVYLQMNSLKPEDTAVYYCAADWGGLWFWYEYWGQGTQVTVSS	low polyreactivity
QVQLVESGGGLVQAGGSLRLSCAASGSTFGDNAMVWYRQAPGKERELVAAITFRDGITYYADSVKGRITISRDNAKNSVYLQMNSLKPEDTAFYYCAKGVHRRWYYGYGYWGQGTQVTVSS	high polyreactivity
QVQLVESGGGLVQAGGSLRLSCAASGSTFGDNTMGWYRQAPGKERELVASISKSGGSTYYADSVKGRFTISRDNAKNTVYLQMNSLKPEDTAVYYCNRVTHYIRFDYWGQGTQVTVSS	low polyreactivity
QVQLVESGGGLVQAGGSLRLSCAASGSTFGDYAMGWYRQAPGKERELVAAMSRGGSTYYADSVKGRFTISRDNAKNTVYLQMNSLKPEDTAVYYCNKDEGYSASPDGSTFDYWGQGTQVTVSS	low polyreactivity
QVQLVESGGGLVQAGGSLRLSCAASGSTFGEYAMGWYRQAPGKERELVASITFSAGSTDYADSVKGRFTISRDNAKNTVFLQMNSLKPEDTSVYYCAADGWWPWEYEYWGQGTQVTVSS	low polyreactivity
QVQLVESGGGLVQAGGSLRLSCAASGSTFGFNAMGWYRQAPGKERELLPLFWSGGSTYYADSVKGRFTISRDNAKNTVYLQMNSLKPEDTAVYYCNKDSPPITRYDYWGQGTQVTVSS	low polyreactivity

Sequence	polyreactivity (PSR sort gate)
QVQLVESGGGLVQAGGSLRLSCAASGSTFGFYAMGWYRQAPGKERELVAAISGRGGSTYYADSVKGRFTISRDNAKNTVYLQMNSLKPEDTAVYYCNADWQDDLAGYVVDYWGLGTQVTVSS	low polyreactivity
QVQLVESGGGLVQAGGSLRLSCAASGSTFGFYAMGWYRQAPGKERELVAAISWNDGSTYYADSVKGRFTISRDNAKNTVYLQMNSLKPEDTAVYYCATEYSLWYTRDWQRYEYWGQGTQVTVSS	high polyreactivity
QVQLVESGGGLVQAGGSLRLSCAASGSTFGGNAMGWYRQAPGKERELVAAISSSGGSTYYADSVKGRFTISRDNAKNTVYLLMNSLKPEDTAVYYCNADDGYGQVHSISTYEMDYWGQGTQVTVSS	low polyreactivity
QVQLVESGGGLVQAGGSLRLSCAASGSTFGGNAMGWYRQAPGKERELVAAISSSGGSTYYADSVKGRFTISRDNAKYTVYLQMNSLKPEDSAVYYCAALYHWTYDYWGLGTQVTVSS	low polyreactivity
QVQLVESGGGLVQAGGSLRLSCAASGSTFGGNAMGWYRQAPGKERELVAVISKRGGSTYYADSVKGRFTISRDNAKNTVYLQMNSLKPEDTAVYYCAAGYFIRTRSRYRYDYWGQGTQVTVSS	high polyreactivity
QVQLVESGGGLVQAGGSLRLSCAASGSTFGGYAKGWYRQAPGKERELVAAMSQSGTRTYYADSVKGRFTISRDKAKNTVYLQMNSLKPEDTAVYYCAAEKRFRKYDNWGQGTQVTVSS	high polyreactivity
QVQLVESGGGLVQAGGSLRLSCAASGSTFGGYAMGWYRQAPGKERELVAAISSGGSTYYADSVKGRFTISRDNAKNTVYLQMNSLKPEDTAVYYCAAEGIYFILWYGYVEYDYWGQGTQVTVSS	low polyreactivity
QVQLVESGGGLVQAGGSLRLSCAASGSTFGGYTMGWYRQAPGKERELVAAITSRGGTTYYADSVKGRFTISRDNAKNTVYLQMNSLKPEDTAVYYCNRVSRYFYGFYWGQGTQVTVSS	high polyreactivity
QVQLVESGGGLVQAGGSLRLSCAASGSTFGHYARGWYRQATGKERELVAAISFTGARTYYADSVKGRFTISRDNAKNTVYLQMNSLKPEDTAVYYCIARGDYRISDYWGQGTQVTVSS	high polyreactivity
QVQLVESGGGLVQAGGSLRLSCAASGSTFGINAMGWYRQAPGKERELVASITRRGGSTYYADSVKGRFTISRDNAKNTVYLRMNSLKPEDTAVYYCNKTYRYGTPLYDYWGQGTQVTVSS	high polyreactivity
QVQLVESGGGLVQAGGSLRLSCAASGSTFGINAMGWYRQAPGKERELVAVIRAGGGRTYYADSVKGRFTISRDNAKNTVYLQMNSLKPEDTAVYYCAARYYSRYVSVYASSKTGYDYWGQGTQVTVSS	high polyreactivity
QVQLVESGGGLVQAGGSLRLSCAASGSTFGIYSMGWYRQAPGKERELVAAISVRGGRTYYADSVKGRFTISRDNAKNTVYLQMNSLKPEDTAVYYCAPTWYWGNDYWGQGTQVTVSS	low polyreactivity
QVQLVESGGGLVQAGGSLRLSCAASGSTFGKYVMGWYRQAPGKERELVAAISRSGGSTYYADSVKGRFTISRDNAKNTVYFQMNSLKPEDTAVYYCATVGYGYDYWGQGTQVTVSS	high polyreactivity
QVQLVESGGGLVQAGGSLRLSCAASGSTFGLYAMGWYRQAPGKEREFVAAISWRTGSTYYADSVKGRFTISRDNAKNTVFLQMYSLKPEDTAVYYCAARAYGTIIHGYWGQGTHVTVSS	high polyreactivity
QVQLVESGGGLVQAGGSLRLSCAASGSTFGLYAMGWYRQAPGKERELVAAISSGGSTYYADSVKGRFTISRDNAKNTVYLQMNSLKPEDTAVYYCATGYWAYTIEYYYWGQGTQVTVSS	low polyreactivity
QVQLVESGGGLVQAGGSLRLSCAASGSTFGLYAMGWYRQAPGKERELVAAITGRASSTYYADSVKGRFTISRDNAKNTVYLQMNSLKPEDTAVYDCAASGFGQISNPRRDYWGQGTQVTVSS	high polyreactivity
QVQLVESGGGLVQAGGSLRLSCAASGSTFGLYARGWYRQAPGKERELVAAISGGRTYYADSVKGRFTISRDNAKNTVYLQMNSLKPEDTAVYYCAADYNYYWGQGTQVTVSS	high polyreactivity
QVQLVESGGGLVQAGGSLRLSCAASGSTFGLYGMGWYRQAPGKERELVAAITYSGGGTYYADSVKGRFTISRDNAKNTVYLQMNSLKPEDTAVYYCAAEYYSSITGWYYYWGQGTQVTVSS	low polyreactivity
QVQLVESGGGLVQAGGSLRLSCAASGSTFGNNAMGWYRQAAGKERELVAGINSGGSTTYADSVKGRFTISRDNAKNTVYLQMNSLKPEDTAVYYCAAVYYYYSWYSKHYYWGQGTQVTVSS	low polyreactivity
QVQLVESGGGLVQAGGSLRLSCAASGSTFGNNAMGWYRQAPGKERELVATIDDTTVSTNYADSVKGRFTISRDNAKNTVYLQMNSLKPEDTAVYYCAADDVDGSPYDYWGQGTQVTVSS	low polyreactivity
